Data as given in the DeepSol protein solubility set.

Test: soluble on expression in E. coli; label from the status in PepcDB or PDB records

Sequence	soluble on expression in E. coli
PHFIVECSDNIREEADLPGLFAKVNPTLAATGIFPLAGIRSRVHWVDTWQMADGQHDYAFVHMTLKIGAGRSLESRQQAGEMLFELIKTHFAALMESRLLALSFEIEELHPTLNFKQNNVHALFK	soluble
MKKPKHDLTHVRHDPAHCLAPGLFRSLKRGDRKRCKLDVTYTFGEDESMRFVGFEPLGADDMRLLQGIVALGGPNGILLTPEPTSETGRQLRLFLEPRFEAIEQDGLVVRESLTKLLSETGMTDSGDNIKALKASLLRMSNVTILVTKGRRQAAFHLMSHAFDETDGRLWVALNPRIAEAILGHRPYARIDMAEVRVLQTDPARLMHQRLCGWIDPGKSGRVELDTLCGYVWPDEANAEAMKKRRQTARKALAELAAVGWVVNEYAKGKWEIKRPGPTATAPVYRRNVPLLPS	not soluble
MKIGIIGAGFVARAIAKLALQNGHQVMLSNSRDPQSLFSLRPMIGCDIGTATQAALFGDIIVIAVPFTAIDKLPEQALQGKSVIDAVNYYTERDGKVAALDTRSTTTSELLAGYLPGAKITKAFNAITMTQLERDGLPAGSAHRRALPLAGDHEQEKTIVAELYDAFGFDVVDAGKLSEGWRFERNMPSYCVRMTKAELTTALALSSRLEHHHHHH	soluble
MGSDKIHHHHHHMSTFIFPGDSFPVDPTTPVKLGPGIYCDPNTQEIRPVNTGVLHVSAKGKSGVQTAYIDYSSKRYIPSVNDFVIGVIIGTFSDSYKVSLQNFSSSVSLSYMAFPNASKKNRPTLQVGDLVYARVCTAEKELEAEIECFDSTTGRDAGFGILEDGMIIDVNFNFARQLLFNNDFPLLKVLAAHTKFEVAIGLNGKIWVKCEELSNTLACYRTIMECCQKNDTAAFKDIAKRQFKEILTVKEE	not soluble
DVVVTQTPLSLPVSLGDQASISCRSSEVIVTRNGYTPIEWYLQKPGQSPKLLIYKAYKRFPGVPDRFSGSGSGTDFTLKISRVEAEDLGVYYCFDGSTVPPKFGGGTKLEIKRADAAPTVSIFPPSSEQLTSGGASVVCFLNNFYPKDINVKWKIDGSERQNGVLNSWTDQDSKDSTYSMSSTLTLTKDEYERHNSYTCEATHKTSTSPIVKSFNRDEC	soluble
MGSDKIHHHHHHMFISDVHLGSKAAKADFLIDFLRYHDADIIYLVGDIVDGWRLRRSWHWPQSHNDVVQKLLRKARKGASITYIAGNHDEFARQFQGVHFGGIVVADRAIHETADGKRLLVIHGDQFDTVVHNQRWLAYLGDHAYDAAMIVNRVVTRLRQLLGLPYWSFSSWAKVKVKKAVNFIGSFQTVLTEEARRSHVDGVICGHIHHAAIENFDDVRYINTGDWVESCTAVVEHFDGRMEILTWAQVLPESFDEPFIPMLIEDRVGQAA	not soluble
MFNRGNTRVDVSSEPGTSGRYPERMIDQLPANYPCAKLKLDQFFLQWLSEHQDLVSTLVEDIQAGRPIHAPTAPVGPSPLSPSTAHMIFASTPPISPSKTRSPGTPLSPARRSTTTLGGSQKRGPLVSIPQFYFPTQSSNAGQGSDPATRDFLQRAEAAYKTDGGAAGLGQKAFVKMMQEVCELPSMVAYSLFKRLTGCEAGEEEGAAVPRDTFIKFWTGRGLVTAPPPKRAFDSLRPDGQDYLTFADFWPMMECVLRYHPGLEFLAETQEFQRKYAETVIHRIFYSLNKCGSGRLTFREFRSGELMDALYALDRENDINKILKFFSYEHFYVIYCKFWELDQDHDFQLDKTDLAHYSNCALSYVIVDRIFEEAPRKFKAGTPPGKMCYEDFVWFILSEEDKTTDTALTYWFRCVDLDGDGVIRPREMLYFYEEQLRRLEGWNQEPVQFEDLLCQLHDMLSPAKEGAFTLRDLKRTKPQSGLFFSSLFSLHKFVGFENRDPFAQRAEAAEFTGLSDWDKFAKIEYFRLASEDDQQDTAGGAMDTDEQI	not soluble
MGSDKIHHHHHHMSIVLKAIRFHRETDLFTDLNFEFPTGALTVLTGDSGSGKSTLLSLIAGYAAMPYEGTILLNGHDDRNAAMQVKAQHVGMMFQNPDQQFTMRTLSGELSFALENLNLPVAEIQRRFAQAVALGETQALLDRDLSTLSGGEKQRAALTVLLAMDAPILLLDEPFASIDPTSRHLLIGKLGTLRDHGKTIVIAEHDLTDYADVADQLVALKNGELSRLPLATLTTLPTHFNLTQPRQATNKIFHLENVVCQQNHHILLQAPSWDFNDGITTLTGANGSGKSTLLRSMVQRHPYQGRMFLGQQRLRRRKRLYQTMTLAVQDAAKQFVTLTLADELAFGPALPAAVREKQQAALAYLGLAEKQTTSLYQLSEGQKKMVQLMTMLSLDLSFLLLDEPFSGLDDRACQYFAAWIKAKSATQAFLIVTHRLAPLAGISQQQVLLANHRLQVVQG	not soluble
MTLAEAADAINFGLAGRVVLVTGGVRGVGAGISSVFAEQGATVITCARRAVDGQPYEFHRCDIRDEDSVKRLVGEIGERHGRLDMLVNNAGGSPYALAAEATHNFHRKIVELNVLAPLLVSQHANVLMQAQPNGGSIVNICSVSGRRPTPGTAAYGAAKAGLENLTTTLAVEWAPKVRVNAVVVGMVETERSELFYGDAESIARVAATVPLGRLARPADIGWAAAFLASDAASYISGATLEVHGGGEPPPYLGASSANK	soluble
MTTGTEEARIPLDPFVTDLDGESARLRAAGPLAAVELPGGVPVWAVTHHAEAKALLTDPRLVKDINVWGAWRRGEIPADWPLIGLANPGRSMLTVDGAEHRRLRTLVAQALTVRRVEHMRGRITELTDRLLDELPADGGVVDLKAAFAYPLPMYVVADLMGIEEARLPRLKVLFEKFFSTQTPPEEVVATLTELASIMTDTVAAKRAAPGDDLTSALIQASENGDHLTDAEIVSTLQLMVAAGHETTISLIVNAVVNLSTHPEQRALVLSGEAEWSAVVEETLRFSTPTSHVLIRFAAEDVPVGDRVIPAGDALIVSYGALGRDERAHGPTADRFDLTRTSGNRHISFGHGPHVCPGAALSRMEAGVALPALYARFPHLDLAVPAAELRNKPVVTQNDLFELPVRLAHHHH	soluble
MLKIADKTFQSRLFTGTGKFSNRHVMAEALAASGSELVTMALKRIDLAQRDDDILAPLLSMQMNLLPNTSGAKNAADAVYAAELAREALATNWLKLEIHPDPKYLMPDPIETLLAAEQLVKQGFIVLPYCHADPVLCKRLEEVGCAAVMPLGSPIGSNQGLASKTFLEIIIDQAKVPVIVDAGIGSPSDAAQAMELGADAVLVNTAIAAAHDPIAMAKAFKLAVEAGRMAYESGLPSRVKMATASSPLTGFLDFVS	not soluble
MGILDHPSSSSGIQSGGGTFGIDWAKWFPPVTSRSFLSHYLPASGALSHTLYTVHLFSPNIISSLFPTGDLAVSNTILFNANVGLGFYVYFRRHLHRVNPWERVEFSVLSSTLFNFGSLLAAVLIKALIPAKSPTWLKSLTATVLSGYLLSRAAKYMGILDHRSSRGSVSPARSVLSRRQTASRSSHAAEVTPPPASYAPETPRSVASTSYYSPSELHLDTTSSVQLETPPQSHESGSFMPMTPSATEHSSSEFGQDLEDAGDRHENYRYLHSYALNNLNHSRPKKETILRRTTMNQKNQLATPQKQLRRSSETMAPMCFVTPEPSWKELDVGVYTPPPSRMDFTPQASKKLTKSSKSVKIIQKKSRRIPNEKDDFDRFLDAVQWHAPLILVPVAFGCWITGSVPILSPTLRFIFA	not soluble
MSLCAREPRVPADRLVAEMVPPPRFDSVRFGTYVPDPNQPSQSEAVRVLEDFAGGLGEAPGTGGGRRGFFGLGRGRAPKTPAGPRGVYLDGGYGVGKTHLLASLWHATPAEPSRKAFGTFVELTNLVGALGFQQTVQTLSGHRLLCIDEFELDDPGDTVLVSSLLARLVEAGVALAATSNTLPGKLGEGRFAAADFLREIQGLSAHFRALRIDGEDYRHRGLPEAPAPYSDEQVTRAARATEGASLDDFAALLDHLARVHPSRYGALTDGLTAVCLTGVHPVPDQSTALRLVVLADRLYDREVPVLASGLPFDRLFGEEMLKGGYRKKYFRAISRLTALARDAARLVDTAAAALEHHHHHH	not soluble
MDDDFVRALNKFNSKFSFRNKKNSLNEVLQKNKRNDKKEDINCNKLKNDLELQYIHSSNNKICQKFLTLPLNKKSDKLKDHSDKIILPVSILKTLEKGNYKNEVEFPYTFSIKNVQNNYITHACVLEFSSNEGIIFVSDNIKENLGLNKPQNSSIARVLITYCILSKCDFIKLDSLNNNINDIKYMKNLLENELSLNYSTLTLGDYIHINHLNFYISELEPDNAVSLINTDINVDICERNNMEGYKNVNILGDHKDIYEIIKIDIPINSSIQKGMNKYKFVLNNNTLDLLKKGKIELAIHLQSQMMLHSLNLFISLPPLDSVSEVLHHLYIDDYSTDEIIINREVIRNILKLHFACMIKEQPYNKNNDNHHANDKEDNVHNGTCNDHHEDDKIEKQNYDDSFLEYIFEHFFPHIIYIGVHNYMDTLVDYSICLKLNGEKNMSTKKDDSNNKCVNTSGFIHNNINLLKNININTQDIDNNNNDDTYITCDNCLKNILKYNIHMHKIHCLKNFTLCNICKKVLKKNEKDNHIHCDICNEGMHKNKKKTHELIWHTQIKCVCDKLLFRKQFIFHQNLFCPKKIIYCTFCNIFTQSNINIYNEEFILATFFDKYDNIKTNNSTVNKSIKYYYNMLFTYFHFFLKYIKNTEHEKYCGSKSINCTICKQIIYRNEYLLHLNTLHHFNKIESFKIINDNADLSQLMN	not soluble
MYNLHREKIFMSYNQNKQYLEDNPEIQEKIELYGLNLLNEVISDNEEEIRADYNEANFLHPFWMNYPPLDRGKMPKGDQIPWIEVGEKAVGSKLTRLVSQREDITVREIGLPTGPDERYLLTSPTIYSLTNGFTDSIMMFVDIKSVGPRDSDYDLVLSPNQVSGNGDWAQLEGGIQNNQQTIQGPRSSQIFLPTIPPLYILSDGTIAPVVHLFIKPIYAMRSLTKGDTGQSLYKIKLASVPNGLGLFCNPGYAFDSAYKFLFRPGKDDRTKSLLQKRVRVDLRVLDKIGPRVMTIDMDK	soluble
MSLKPVKPPRINGRVPVLSAQEAVNYIPDEATLCVLGAGGGILEATTLITALADKYKQTQTPRNLSIISPTGLGDRADRGISPLAQEGLVKWALCGHWGQSPRISELAEQNKIIAYNYPQGVLTQTLRAAAAHQPGIISDIGIGTFVDPRQQGGKLNEVTKEDLIKLVEFDNKEYLYYKAIAPDIAFIRATTCDSEGYATFEDEVMYLDALVIAQAVHNNGGIVMMQVQKMVKKATLHPKSVRIPGYLVDIVVVDPDQTQLYGGAPVNRFISGDFTLDDSTKLSLPLNQRKLVARRALFEMRKGAVGNVGVGIADGIGLVAREEGCADDFILTVETGPIGGITSQGIAFGANVNTRAILDMTSQFDFYHGGGLDVCYLSFAEVDQHGNVGVHKFNGKIMGTGGFIDISATSKKIIFCGTLTAGSLKTEITDGKLNIVQEGRVKKFIRELPEITFSGKIALERGLDVRYITERAVFTLKEDGLHLIEIAPGVDLQKDILDKMDFTPVISPELKLMDERLFIDAAMGFVLPEAAHEGGSHHHHHH	soluble
MDTVVMSWWDFGHLFAVAADRPVTFDGGSQNTPRAYWIGKALTTSNETLSRGILTMLSTSGDLAYETLDNYTDDSGKTAEILTATLGLPREEARAVMTGRYGLSDKEADSVLRYSHPAKPKPFVLVLSSDMLGKAPWWTYFGTWDFKKKTGSRLEHHHHHH	not soluble
MTEHRPAIELEEIPTLLERIEGYKGRSRLTQLAIKLNLLIFIRSSELRFARWSEIDFKSGLWVIPEQREAIKGIKHSDRGAKMRRKHYVPLCEQALVILGELKDLTYDVNGDDGFILTGCYDAMKPMSENTINKALRKMGYDTKTDLCGHGFRTLACSALIESGIWPEDVVELQMSHMEKNNVRAAYTHKAKHLEQRRLMLQWWADFLDANGSGMVRPFEFAQGATQYLEHHHHHH	not soluble
